Key:
[1] = biological target: T1, von Willebrand factor (VWF) (Homo sapiens, UniProt P04275 P04275:764-2813); assay: filter; Bmax 55%; 2 mM CaCl2, 37 C; details: tags: factor VIII free, Haematologic Technologies Inc; label: 5'-32P
Protocol: (§1) Affinity constants (Kd values) were determined using double-filter nitrocellulose filter binding assays (Rusconi et al, Thromb. Haemost. $4:841-848 (2000)). All binding studies were performed in binding buffer F (20 mM HEPES, pH 7.4, 150 mM NaCl, 2 mM CaCl₂, and 0.01% BSA) at 37° C. Human purified VWF (factor VIII free) was purchased from Haematologic Technologies Inc. (Essex Junction, Vt.) and used in the double-filter nitrocellulose filter binding assay to determine the Kd of the aptamers. Briefly, RNA were end-labeled at the 5′ end with T4 polynucleotide kinase (New England Biolabs, Beverly, Mass.) and [γ³²P] ATP (Amersham Pharmacia Biotech, Piscataway, N.J.) (Fitzwater and Polisky, Methods Enzymol. 267:275-301 (1996)). End-labeled RNA was diluted in binding buffer F, heat denatured at 65° C. for 5 minutes, and subsequently equilibrated at 37° C. Direct binding was performed by incubating trace ³²P-RNA with varying concentrations of VWF protein in binding buffer F at 37° C. for 5 min. The fraction of the nucleic acid-protein complex which bound to the nitrocellulose membrane was quantified with a phosphorimager (Molecular Dynamics, Sunnyvale, Calif.). Non-specific binding of the radiolabeled nucleic acid was subtracted out of the binding such that only specific binding remained (Wong and Lohman, Proc. Natl. Acad. Sci. USA 90:5428-5432 (1993)).

[2] = biological target: T1, von Willebrand factor (VWF); assay: filter; Bmax 73%; 2 mM CaCl2, 37 C; details: Haematologic Technologies Inc, label: 5'-32P
Protocol: as §1

[3] = biological target: T1, von Willebrand factor (VWF); assay: filter; Bmax 67%; 2 mM CaCl2, 37 C; details: tags: factor VIII free human purified VWF, Haematologic Technologies Inc; label: 5'-32P
Protocol: as §1

[4] = biological target: T1, von Willebrand factor (VWF); assay: filter; Bmax 71%; 2 mM CaCl2, 37 C; details: tags: factor VIII free human purified VWF, Haematologic Technologies Inc; label: 5'-32P
Protocol: as §1

[5] = biological target: T1, von Willebrand factor (VWF); assay: filter; Bmax 83%; 2 mM CaCl2, 37 C; details: tags: factor VIII free human purified VWF, Haematologic Technologies Inc; label: 5'-32P
Protocol: as §1

[6] = biological target: T1, von Willebrand factor (VWF); assay: filter; Bmax 60%; 2 mM CaCl2, 37 C; details: tags: factor VIII free, Haematologic Technologies Inc; label: 5'-32P
Protocol: as §1

[7] = biological target: T1, von Willebrand factor (VWF); assay: filter; Bmax 84%; 2 mM CaCl2, 37 C; details: tags: factor VIII free, Haematologic Technologies Inc; label: 5'-32P
Protocol: as §1

[8] = biological target: T1, von Willebrand factor (VWF); assay: filter; Bmax 52%; 2 mM CaCl2, 37 C; details: tags: factor VIII free, Haematologic Technologies Inc; label: 5'-32P
Protocol: as §1

[9] = biological target: T1, von Willebrand factor (VWF); assay: filter; Bmax 13%; 2 mM CaCl2, 37 C; details: tags: factor VIII free, Haematologic Technologies Inc; label: 5'-32P
Protocol: as §1

[10] = biological target: T1, von Willebrand factor (VWF); assay: filter; Bmax 10%; 2 mM CaCl2, 37 C; details: tags: factor VIII free, Haematologic Technologies Inc; label: 5'-32P
Protocol: as §1

[11] = biological target: T1, von Willebrand factor (VWF); assay: filter; Bmax 57%; 2 mM CaCl2, 37 C; details: tags: factor VIII free, Haematologic Technologies Inc; label: 5'-32P
Protocol: as §1

[12] = biological target: T1, von Willebrand factor (VWF); assay: filter; Bmax 79%; 2 mM CaCl2, 37 C; details: tags: factor VIII free, Haematologic Technologies Inc; label: 5'-32P
Protocol: as §1

[13] = biological target: T1, von Willebrand factor (VWF); assay: filter; Bmax 62%; 2 mM CaCl2, 37 C; details: tags: factor VIII free, Haematologic Technologies Inc; label: 5'-32P
Protocol: as §1

[14] = biological target: T1, von Willebrand factor (VWF); assay: filter; Bmax 56%; 2 mM CaCl2, 37 C; details: tags: factor VIII free, Haematologic Technologies Inc; label: 5'-32P
Protocol: as §1

Binder: CCCAAAACGAACUGCCCUCGAUCGACGCACAGACGU (ssRNA, 2'-F C and U; 2'-OH A and G; 3' idT) [T78]
- Kd [1]: 0.0066 µM

B1: T83 vrt1 (ssRNA)
RNA: ACGAACUGCCCUCGAUCGACGCACAGACGUAAAAA
modifications: 2'-F C2,U7,C9,C10,C11,U12,C20,C22,C28,U30; ribo A1,G3,G8,A19,G21,A23,G29; rest 2'-OMe; 3' idT
- Kd ([2]; tags: factor VIII free human purified VWF): 0.0021 µM

Binder: ACGAACUGCCCUCGAUCGACGCACAGACGUACCCG (ssRNA, 2'-F C9,C10,C11,C20,G21,C22,U30; rest 2'-OMe; 3' idT) [T82 vrt6]
- Kd [3]: 0.223 µM

Binder: ACGAACUGCCCUCGAUCGACGCACAGACGUACACG (ssRNA, 2'-F C9,C10,C11,C20,G21,C22,U30; rest 2'-OMe; 3' idT) [T84 vrt6]
- Kd [4]: 0.149 µM

Binder: ACGAACUGCCCUCGAUCGACGCACAGACGUAAAAA (ssRNA, 2'-F C9,C10,C11,C20,G21,C22; rest 2'-OMe; 3' idT) [T83 vrt7]
- Kd [5]: 0.265 µM

Binder: ACGAACUGCCCUCGAUCGACGCACAGACGUAAAAA (ssRNA, 2'-F C9,C10,C11,C20,G21,C22,U30; rest 2'-OMe; 3' idT) [T83 vrt6]
- Kd [3]: 0.209 µM

Binder: ACGAACUGCCCUCGAUUAUUCGACGCACAGACGU (ssRNA, 2'-F C and U; 2'-OH A and G; 3' idT) [T49]
- Kd [6]: 0.0105 µM

Binder: ACGAACUGCCCUCGAUCGACGCACAGACGU (ssRNA, mAfCmGmAmAmCfUrGfCfCfCfUmCmGmAmUmCmGrAfCrGfCrAmCmAmGmAfCmGfU-idT) [T59 vrt7]
- Kd [7]: 0.0008 µM

Binder: ACGAACUGCCCUGAUUAUUCACGCACAGACGU (ssRNA, 2'-F C and U; 2'-OH A and G; 3' idT) [T69]
- Kd [8]: 0.026 µM

Binder: ACGAACUGCCCUAUUAUUACGCACAGACGU (ssRNA, 2'-F C and U; 2'-OH A and G; 3' idT) [T64]
- Kd [9]: 0.054 µM

B2: T16 (ssRNA)
RNA: GGGAGGUGGACGAACUGCCCUCAGCUACGUUGCUGACGCACAGACGACUCGCUG
modifications: 2'-F C and U; 2'-OH A and G
- Kd [9]: 0.126 µM

Binder: ACGAACUGCCCUCGUAAGACGCACAGACGUUUUUU (ssRNA, mAmCmGmAmAmCmUmGfCfCfCmUmCmGmUmAmAmGmAfCrGfCmAmCmAmGmAmCmGfUmUmUmUmUmUidT) [DTRI-012]
- Kd ([2]; tags: factor VIII free): 0.0055 µM

Binder: ACGAACUGCCCUCGUAAGACGCACAGACGUUUUUU (ssRNA, mAmCmGmAmAmCmUmGfCfCfCmUmCmGmUmAmAmGmAfCfGfCmAmCmAmGmAmCmGmUmUmUmUmUmUidT) [DTRI-034]
- Kd [6]: 0.0028 µM

Binder: GGGAGGUCAGCUACUUUCAUGUUGCUGACGCACAGACGACUCGCUG (ssRNA, 2'-F C and U; 2'-OH A and G) [T21]
- Kd [10]: 0.026 µM

B3: T15 (ssRNA)
RNA: GGGAGGUGGACGAACUGCCCUCAGCUACCAUGUUGCUGACGCACAGACGACUCGCUG
modifications: 2'-F C and U; 2'-OH A and G
- Kd [9]: 0.083 µM

B4: T25 vrt9 (ssRNA)
RNA: ACGAACUGCCCUCAGCUACUUUCAUGUUGCUGACGCACAGACGU
modifications: rAfCrGrArAfCfUrGfCfCfCfUfCmAmGfCfUmAfCfUfUfUfCrAfUrGfUfUmGfCfUmGrAfCrGfCrAfCrArGrAfCrGfU-idT
- Kd [11]: 0.0098 µM

B5: T25 vrt11 (ssRNA)
RNA: ACGAACUGCCCUCAGCUACUUUCAUGUUGCUGACGCACAGACGU
modifications: rAfCrGrArAfCfUrGfCfCfCfUfCrArGfCfUrAfCfUfUfUfCmAfUmGfUfUrGfCfUrGrAfCrGfCrAfCrArGrAfCrGfU-idT
- Kd [11]: 0.0072 µM

B6: T25 vrt13 (ssRNA)
RNA: ACGAACUGCCCUCAGCUACUUUCAUGUUGCUGACGCACAGACGU
modifications: rAfCrGmAmAmCfUrGfCfCfCfUmCmAmGmCmUmAmCmUmUmUmCmAmUmGmUmUmGmCmUmGrAfCrGfCrAmCmAmGmAfCrGfU-idT
- Kd [12]: 0.0019 µM

B7: T25 vrt10 (ssRNA)
RNA: ACGAACUGCCCUCAGCUACUUUCAUGUUGCUGACGCACAGACGU
modifications: rAfCrGrArAfCfUrGfCfCfCfUmCmAmGmCmUmAfCfUfUfUfCrAfUrGmUmUmGmCmUmGrAfCrGfCrAfCrArGrAfCrGfU-idT
- Kd [13]: 0.0057 µM

B8: T25 vrt17 (ssRNA)
RNA: ACGAACUGCCCUCAGCUACUUUCAUGUUGCUGACGCACAGACGU
modifications: rAfCrGrArAfCmUrGfCfCfCfUfCrArGfCfUrAfCfUfUfUfCrAfUrGfUfUrGfCfUrGrAfCrGfCmAfCrArGrAfCrGfU-idT
- Kd [14]: 0.023 µM

From patent US20190218553, “VON WILLEBRAND FACTOR (VWF)-TARGETING AGENTS AND METHODS OF USING THE SAME” (DUKE UNIVERSITY, published 2019)
